Test results taken from patent US20240239899A1 (Memorial Sloan Kettering, published 2024).
Blank lines part the entries; values can stand above or below the binder they belong to.

Assays:
[1] = target: CCCK phosphopeptide/HLA-A2 complex on T2 cells (human, phosphoserine at position 7); experiment: flow cytometry, T2 cells pulsed with 20 µg/ml peptide (FIG. 11)
[2] = target: b-catenin phosphopeptide/HLA-A2 complex on T2 cells (human, phosphoserine at position 4); experiment: as above
[3] = target: T1, HLA-A2 molecule on T2 cells (T2 cells alone, not pulsed) (human); experiment: flow cytometry, titration of 6B1 on unpulsed T2 cells (FIG. 1C)
T1 construct: Stands both for the target 'T2 cells alone' and for the partner of the pulsed peptides in the T2 stabilization assays; also called HLA-A02

[4] = target: T1, HLA-A2 molecule on T2 cells (T2 cells …); experiment: flow cytometry, unpulsed T2 cells, secondary anti-His-tag mAb

binding result [1]: no binding
binding result [2]: no binding
B1: 6B1 mAb (TCR mimic, full length human IgG1) (antibody, V domains shown)
VH: EVQLLESGGGLVQPGGSLRLSCAASGFTFSSYAMSWVRQAPGKGLEWVSEISGGGGYTDYADSVKGRFTISRDNSKNTLYLQMNSLRAEDTAVYYCARQMYYYYGMDVWGQVTTVTVSS
VL: EIVLTQSPGTLSLSPGERATLSCRASQSVSANYLAWYQQKPGQAPRLLIYGASSRATGIPDRFSGSGSGTDFTLTISRLEPEDFAVYYCQQSYQRPLTFGQGTKVEIK
notes: Full length human IgG1; Conjugated to APC for direct staining of tumor cell lines; also called mAb 6B1; Mab 6B1
binding result [3]: no binding (tested: 10 µg/ml to 0.1 µg/ml)

binding result [4]: no binding (tested: 1 or 0.1 µg/ml)
B2: 6B1 BisAb h2+2 (L2K scFv inserted into the upper hinge of 6B1 IgG1) (bispecific antibody)
heavy: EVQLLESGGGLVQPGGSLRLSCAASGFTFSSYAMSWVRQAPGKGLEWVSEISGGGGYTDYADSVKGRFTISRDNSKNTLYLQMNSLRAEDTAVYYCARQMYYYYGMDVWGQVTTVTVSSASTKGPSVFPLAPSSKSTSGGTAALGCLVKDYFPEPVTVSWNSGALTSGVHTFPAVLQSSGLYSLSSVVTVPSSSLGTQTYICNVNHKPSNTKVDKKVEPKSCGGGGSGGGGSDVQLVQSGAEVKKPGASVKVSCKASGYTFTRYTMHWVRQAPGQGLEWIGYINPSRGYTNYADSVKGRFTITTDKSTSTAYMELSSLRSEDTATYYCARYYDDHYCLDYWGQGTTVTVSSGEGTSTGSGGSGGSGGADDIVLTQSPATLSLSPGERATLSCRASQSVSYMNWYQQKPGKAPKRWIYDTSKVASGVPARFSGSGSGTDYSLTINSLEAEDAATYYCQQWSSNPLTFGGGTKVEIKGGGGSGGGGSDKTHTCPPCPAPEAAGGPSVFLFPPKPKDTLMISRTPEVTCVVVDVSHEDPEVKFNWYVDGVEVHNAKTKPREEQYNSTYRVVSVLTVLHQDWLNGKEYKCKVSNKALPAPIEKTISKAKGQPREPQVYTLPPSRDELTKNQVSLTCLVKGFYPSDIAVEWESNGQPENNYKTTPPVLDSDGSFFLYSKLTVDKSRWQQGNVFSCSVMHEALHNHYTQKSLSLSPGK
light: EIVLTQSPGTLSLSPGERATLSCRASQSVSANYLAWYQQKPGQAPRLLIYGASSRATGIPDRFSGSGSGTDFTLTISRLEPEDFAVYYCQQSYQRPLTFGQGTKVEIKRTVAAPSVFIFPPSDEQLKSGTASVVCLLNNFYPREAKVQWKVDNALQSGNSQESVTEQDSKDSTYSLSSTLTLSKADYEKHKVYACEVTHQGLSSPVTKSFNRGEC

binding result [4]: no binding (tested: 1 or 0.1 µg/ml)
B3: 6B1 BisAb C2+2 (L2K scFv fused to the C-terminus of the 6B1 IgG1 heavy chain) (bispecific antibody)
heavy: not shown
light: B2 light
notes: copies: 2 + 2
